Measured values published in patent WO2016073157A1 (dated 2016).
Positions count from the first letter of the chain named. Names and notes keep the numbering of the source.

Assays:
hVEGF109 [1] = target: T1, hVEGF109 (human, UniProt P15692-4 34-135, limits assumed); assay: phage competition ELISA (phage IC50), hVEGF109 in solution and on the plate, VEGF inferred
T1 construct: Numbers count on the mature 165-amino acid VEGF, not on the precursor; also called human VEGF (hVEGF 109)
T1 sequence (looked up): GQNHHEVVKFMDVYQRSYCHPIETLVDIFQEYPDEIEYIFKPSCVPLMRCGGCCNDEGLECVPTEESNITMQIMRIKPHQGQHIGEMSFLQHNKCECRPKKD

[2] = target: T2, human Fc fusion of Ang2 protein (human, UniProt O15123 275-496, limits assumed); assay: BIACORE T200 SPR, human Fc fusion of Ang2 captured by anti-human Fc, Fab as analyte, Ang2 inferred
T2 construct: Captured by anti-human Fc on the CM5 chip; also called hAng2 (SPR flow cell); not shown: human Fc
T2 sequence (looked up): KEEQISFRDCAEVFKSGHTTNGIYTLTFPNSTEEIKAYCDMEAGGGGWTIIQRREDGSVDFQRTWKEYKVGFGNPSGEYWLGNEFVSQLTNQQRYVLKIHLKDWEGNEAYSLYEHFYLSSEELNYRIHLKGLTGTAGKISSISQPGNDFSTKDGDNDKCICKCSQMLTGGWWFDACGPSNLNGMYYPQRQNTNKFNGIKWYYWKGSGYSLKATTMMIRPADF

hVEGF109 [3] = target: T1, hVEGF109; assay: BIACORE T200 SPR, hVEGF109 coupled to CM5 chip, Fab as analyte, VEGF inferred
hVEGF109 [4] = target: T1, hVEGF109; assay: BIACORE SPR at 25 C; hVEGF109 immobilized on CM5 chip, variant clone as analyte (monovalent affinity)
hVEGF109 [5] = target: T1, hVEGF109; assay: BIACORE SPR at 25 C; hVEGF109 immobilized on CM5 chip, Fab as analyte (monovalent affinity)
[6] = target: T3, His-tagged human Ang2 (hAng2his8) (human, UniProt O15123 19-496, limits assumed); assay: BIACORE SPR at 25 C; hAng2his8 immobilized on CM5 chip, Fab as analyte (monovalent affinity)
T3 construct: neither is tied to this construct; not shown: His tag (his8)
T3 sequence (looked up): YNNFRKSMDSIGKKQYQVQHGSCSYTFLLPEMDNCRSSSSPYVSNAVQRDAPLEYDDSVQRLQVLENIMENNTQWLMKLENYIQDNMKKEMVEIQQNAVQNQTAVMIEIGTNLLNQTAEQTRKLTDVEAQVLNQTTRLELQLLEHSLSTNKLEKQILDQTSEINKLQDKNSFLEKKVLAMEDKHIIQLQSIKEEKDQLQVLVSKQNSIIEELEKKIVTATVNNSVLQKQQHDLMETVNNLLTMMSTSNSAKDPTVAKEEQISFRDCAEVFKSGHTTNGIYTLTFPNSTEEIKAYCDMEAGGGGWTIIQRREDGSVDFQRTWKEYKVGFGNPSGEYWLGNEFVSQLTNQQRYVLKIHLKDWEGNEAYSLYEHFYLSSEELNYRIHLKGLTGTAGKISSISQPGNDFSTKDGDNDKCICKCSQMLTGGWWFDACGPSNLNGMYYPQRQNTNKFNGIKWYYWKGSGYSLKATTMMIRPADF

B1: 5A12 4.2 LC.Q89H/LC.L93K ("D") (Fab, V domains shown)
VH: EVQLVESGGGLVQPGGSLRLSCAASGFTISDYWIHWVRQAPGKGLEWVAGITPAGGYTYYADSVKGRFTISADTSKNTAYLQMNSLRAEDTAVYYCARFVFFLPYAMDYWGQGTLVTVSS
VL: DIQMTQSPSSLSASVGDRVTITCRASQFLSSFGVAWYQQKPGKAPKLLIYGASSLYSGVPSRFSGSGSGTDFTLTISSLQPEDFATYYCHQGLKSPLTFGQGTKVEIK
notes: 5A12 4.2 variant; Fab on phage in the IC50 assay, purified Fab in SPR
IC50 (hVEGF109 [1]): 3.71 nM | Kd [2]: 0.259 nM | Kd (hVEGF109 [3]): 0.675 nM

B2: 5A12 4.2 LC.Q89H (Fab, V domains shown)
VH: B1 VH
VL: B1 VL with K94L
notes: 5A12 4.2 variant; Fab on phage in the IC50 assay; also called LC-89H
IC50 (hVEGF109 [1]): 0.138 nM

B3: 5A12 4.2 (Fab, V domains shown)
VH: B1 VH
VL: B1 VL with H90Q, K94L
notes: also called Fab5A12 4.2
apparent Kd (pooled screen) (hVEGF109 [4]): 5 nM

B4: 5A12 4.2 LC.A34N (Fab, V domains shown)
VH: B1 VH
VL: B1 VL with A35N, H90Q, K94L
notes: 5A12 4.2 variant; Fab on phage in the IC50 assay; also called LC-34N
IC50 (hVEGF109 [1]): 221 nM

B5: 5A12 4.2 LC.L93K (Fab, V domains shown)
VH: B1 VH
VL: B1 VL with H90Q
notes: 5A12 4.2 variant; Fab on phage in the IC50 assay; also called LC-93K
IC50 (hVEGF109 [1]): 0.48 nM

B6: 5A12 4.2.16.2 (Fab, V domains shown)
VH: B1 VH with H35Y, T58E, A106V
VL: B1 VL with A35G, H90W, K94L
notes: purified Fab as analyte in SPR; also called DAF16.2
Kd (hVEGF109 [5]): < 0.003 nM | Kd [6]: 1.51 nM

B7: 5A12 4.2 LC.L92S (Fab, V domains shown)
VH: B1 VH
VL: B1 VL with H90Q, L93S, K94L
notes: 5A12 4.2 variant; Fab on phage in the IC50 assay; also called LC-92S
IC50 (hVEGF109 [1]): 27.7 nM

B8: 5A12 4.2 LC.Q89W (Fab, V domains shown)
VH: B1 VH
VL: B1 VL with H90W, K94L
notes: 5A12 4.2 variant; Fab on phage in the IC50 assay; also called LC-89W
IC50 (hVEGF109 [1]): 2.55 nM
